# Measurements published in publication PMC3665681.
# Target: A3B3 of Thermus thermophilus VoV1 (His-tagged A3B3, expressed without a rotor subunit) (T. thermophilus) (UniProt Q56403)
# Sequence of UniProt Q56403 (Q56403 whole entry C28S/S232A/T235S/C255A, chain 1 of 2): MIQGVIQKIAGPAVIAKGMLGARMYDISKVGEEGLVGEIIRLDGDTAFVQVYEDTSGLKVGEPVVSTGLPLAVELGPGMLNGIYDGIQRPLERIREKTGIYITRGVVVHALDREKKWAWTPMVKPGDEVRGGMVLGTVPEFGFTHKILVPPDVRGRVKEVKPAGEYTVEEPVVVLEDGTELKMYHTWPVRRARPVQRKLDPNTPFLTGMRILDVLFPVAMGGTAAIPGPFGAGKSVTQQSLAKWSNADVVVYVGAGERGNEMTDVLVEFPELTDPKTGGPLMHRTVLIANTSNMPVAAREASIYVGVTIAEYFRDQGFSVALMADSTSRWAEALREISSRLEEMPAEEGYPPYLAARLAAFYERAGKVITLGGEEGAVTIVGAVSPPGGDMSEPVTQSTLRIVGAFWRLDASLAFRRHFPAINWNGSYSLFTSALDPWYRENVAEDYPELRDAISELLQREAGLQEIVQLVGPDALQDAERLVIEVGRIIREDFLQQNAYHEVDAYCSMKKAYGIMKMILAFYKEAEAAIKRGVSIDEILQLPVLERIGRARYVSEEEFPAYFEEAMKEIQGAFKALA
# Sequence of UniProt Q56403 (Q56404 whole entry C264S, chain 2 of 2, further chain): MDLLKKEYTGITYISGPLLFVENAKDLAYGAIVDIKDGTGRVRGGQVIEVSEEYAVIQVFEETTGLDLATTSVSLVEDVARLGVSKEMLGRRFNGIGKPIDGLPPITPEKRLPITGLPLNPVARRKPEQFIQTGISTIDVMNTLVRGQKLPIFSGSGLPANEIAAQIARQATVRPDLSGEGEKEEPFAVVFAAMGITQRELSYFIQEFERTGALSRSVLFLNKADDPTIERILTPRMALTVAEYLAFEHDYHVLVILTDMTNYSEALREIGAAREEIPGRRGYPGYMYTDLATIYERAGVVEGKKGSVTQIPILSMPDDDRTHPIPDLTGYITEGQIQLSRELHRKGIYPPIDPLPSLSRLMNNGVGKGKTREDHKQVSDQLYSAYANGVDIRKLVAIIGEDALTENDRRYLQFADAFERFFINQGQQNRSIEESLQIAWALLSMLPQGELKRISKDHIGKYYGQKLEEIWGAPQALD
substance,measurement,value
FliJ of Salmonella enterica serovar Typhimurium (from UniProt P0A1K1 1-147) (natural protein),"ATPase turnover rate of A3B3J (A3B3 alone ∼4.0 s^−1); 25°C, 4 mM MgATP",7 s⁻¹
